Here are results for 3 molecules from patent US20100260853A1 (published 2010).

One experiment addresses GLP receptor. As to the kind of experiment: cell-based or functional assay.
Experiment [1] deals with T1, human IL-13 (human, UniProt P35225 35-146, limits assumed, biotinylated in the binding ELISA and on the Biacore chip).
T1 construct: also called hIL-13; Hu IL-13
Nature of the experiment: sandwich ELISA on hIL-13; 4.7 mg/mL in phosphate/PEG1000/sucrose, LC+, material remaining in cup.

For experiment [2], the target named is T1, human IL-13. Nature of the experiment: Biacore, about 100 RU biotinylated human IL-13 on SA chip, dAb in flow.
The target in experiment [3] is T1, human IL-13. Nature of the experiment: sandwich ELISA on hIL-13; 2.3 mg/mL in phosphate/PEG1000/sucrose, LC+, aerosolized material.
Experiment [4] addresses T1, human IL-13. As to the kind of experiment: sandwich ELISA on hIL-13; 2.3 mg/mL in phosphate/PEG1000/sucrose, E-flow, aerosolized material.
The target of experiment [5] is T1, human IL-13. As to the kind of experiment: sandwich ELISA on hIL-13; material in 1xPBS, not nebulised.
In experiment [6] the target is T1, human IL-13. Nature of the experiment: sandwich ELISA on hIL-13; 4.7 mg/mL in phosphate/PEG1000/sucrose, LC+, aerosolized material.
In experiment [7] the target is T2, cynomolgous IL-13 (cynomolgous, UniProt Q0PW92 19-132, Presumably biotinylated for capture on the streptavidin (SA) chip; biotinylation sites not stated.).
T2 construct: also called cyno IL-13; cIL-13
T2 sequence (Q0PW92 entry or part of it limits assumed, form in doubt): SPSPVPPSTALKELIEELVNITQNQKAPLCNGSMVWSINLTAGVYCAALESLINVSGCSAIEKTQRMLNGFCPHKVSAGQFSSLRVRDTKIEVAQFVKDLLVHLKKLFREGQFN
Nature of the experiment: Biacore, about 100 RU cynomolgous IL-13 on SA chip, dAb in flow.

The target of experiment [8] is T1, human IL-13. As to the kind of experiment: binding ELISA: biotinylated human IL-13 on NeutrAvidin plate, bound dAb detected with anti-human Ig (VH specific).
The target of experiment [9] is T1, human IL-13. Nature of the experiment: sandwich ELISA on hIL-13; 4.7 mg/mL in phosphate/PEG1000/sucrose, E-flow, aerosolized material.
Experiment [10] deals with T1, human IL-13. Nature of the experiment: sandwich ELISA on hIL-13; 4.7 mg/mL in phosphate/PEG1000/sucrose, E-flow, material remaining in cup.
Experiment [11] has as its target T1, human IL-13. Nature of the experiment: sandwich ELISA on hIL-13; 2.6 mg/mL in PBS, E-flow, material remaining in cup.
For experiment [12], the target named is T1, human IL-13. Nature of the experiment: sandwich ELISA on hIL-13; 2.6 mg/mL in PBS, LC+, aerosolized material.
Experiment [13] concerns the target T2, cynomolgous IL-13. As to the kind of experiment: cell-based or functional assay.
The target in experiment [14] is T1, human IL-13. Nature of the experiment: cell-based or functional assay.
The target in experiment [15] is T1, human IL-13. Nature of the experiment: sandwich ELISA on hIL-13; 2.6 mg/mL in PBS, E-flow, aerosolized material.
Experiment [16] has as its target T1, human IL-13. As to the kind of experiment: sandwich ELISA: dAb mixed with hIL-13, capture and detection by mouse anti-human IL-13 antibodies, OD450.
Experiment [17] deals with T2, cynomolgous IL-13. Nature of the experiment: cell-based or functional assay. This is another data set of the same source.
Experiment [18] deals with T1, human IL-13. As to the kind of experiment: cell-based or functional assay. This is another data set of the same source.
Experiment [19] addresses T1, human IL-13. Nature of the experiment: sandwich ELISA on hIL-13; 2.6 mg/mL in PBS, LC+, material remaining in cup.
Experiment [20] concerns the target T1, human IL-13. As to the kind of experiment: sandwich ELISA on hIL-13; 2.3 mg/mL in phosphate/PEG1000/sucrose, LC+, material remaining in cup.
The target of experiment [21] is T1, human IL-13. Nature of the experiment: 'Binding Assay' on hIL-13 as headed in Table 12; PARI LC*, reservoir sample at 15 mins.
The target of experiment [22] is T1, human IL-13. Nature of the experiment: 'Binding Assay' on hIL-13 as headed in Table 12; 20 mg/ml in PBS, before nebulisation.
In experiment [23] the target is T1, human IL-13. As to the kind of experiment: 'Binding Assay' on hIL-13 as headed in Table 12; PARI LC*, reservoir sample at 29 mins.
In experiment [24] the target is T1, human IL-13. As to the kind of experiment: 'Binding Assay' on hIL-13 as headed in Table 12; PARI LC*, aerosol sample at 3 mins.
In experiment [25] the target is T1, human IL-13. Nature of the experiment: 'Binding Assay' on hIL-13 as headed in Table 12; PARI LC*, reservoir sample at 3 mins.
Experiment [26] deals with T1, human IL-13. As to the kind of experiment: 'Binding Assay' on hIL-13 as headed in Table 12; PARI LC*, aerosol sample at 29 mins.
Experiment [27] addresses T1, human IL-13. Nature of the experiment: 'Binding Assay' on hIL-13 as headed in Table 12; PARI LC*, aerosol sample at 15 mins.

Values joined by “and” are separate entries in the source; they are usually repeats but may differ in a detail not shown here. Identical values can stand only once.

In the experiment with GLP receptor, “Exendin 4 (G4S)3 DOM7h-14 fusion (DAT0115) (from UniProt P26349)” had a DAT01 cell assay EC50, CHO 6CRE/luciferase reporter (sample: DAT0115 LC+ aerosol 3 mins) of 0.296 nM; a DAT01 cell assay EC50, CHO 6CRE/luciferase reporter (sample: DAT0115 LC+ aerosol 15 mins) of 0.316 nM; a DAT01 cell assay EC50, CHO 6CRE/luciferase reporter (sample: DAT0115 LC+ aerosol 29 mins) of 0.142 nM; a DAT01 cell assay EC50, CHO 6CRE/luciferase reporter (sample: DAT0115 LC+ cup 3 mins) of 0.725 nM. Also, in the experiment with GLP receptor, the DAT01 cell assay EC50, CHO 6CRE/luciferase reporter (sample: DAT0115 LC+ cup 15 mins) was found to be 0.453 nM; the DAT01 cell assay EC50, CHO 6CRE/luciferase reporter (sample: DAT0115 LC+ cup 29 mins) turned out to be 0.445 nM; the DAT01 cell assay EC50, CHO 6CRE/luciferase reporter (sample: DAT0115 T0) turned out to be 0.178 nM; the DAT01 cell assay EC50, CHO 6CRE/luciferase reporter (sample: DAT0115 e-Flow aerosol 3 mins) was 0.798 nM. Also, the DAT01 cell assay EC50, CHO 6CRE/luciferase reporter (sample: DAT0115 e-Flow cup 3 mins) with GLP receptor was found to be 0.535 nM.

B1: DOM10-53-474 (other)
chain: GVQLLESGGGLVQPGGSLRLSCAASGFTFAWYDMGWVRQAPGKGLEWVSSIDWHGEVTYYADSVKGRFTISRDNSKNTLYLQMNSLRAEDTAVYYCATAEDEPGYDYWGQGTLVTVSS
Regarding B1, the IC50 in the experiment with human IL-13 [1] is 0.0129 nM; with human IL-13 [3], 0.0348 nM; with human IL-13 [4], 0.0322 nM; with human IL-13 [5], 0.0458 nM and 0.0356 nM and 0.0289 nM and 0.0269 nM; with human IL-13 [6], 0.0149 nM; in the experiment with human IL-13 [9] it was 0.0185 nM. For the same molecule, the IC50 is 0.0214 nM in the experiment with human IL-13 [10]; 0.0224 nM with human IL-13 [11]; 0.023 nM in the experiment with human IL-13 [12]; 0.0351 nM with human IL-13 [15]; 0.0339 nM in the experiment with human IL-13 [19]; 0.0317 nM with human IL-13 [20]. Further, the results for the Kd with human IL-13 [2] and in the experiment with cynomolgous IL-13 [7] were 0.028 nM and 2 nM, respectively. Also, the EC50 was 1.08 nM with human IL-13 [8] and 0.057 nM with human IL-13 [16]. Also, the “HEK assay cIL-13 EC50 (HEK293 STAT6 SEAP reporter)” value with cynomolgous IL-13 [13] is 11.1 nM. Also, the “HEK assay hIL-13 EC50 (HEK293 STAT6 SEAP reporter, 6 ng/ml IL-13)” value with human IL-13 [14] amounted to 0.63 nM. For the same molecule, the “HEK cell assay EC50, Cyno IL-13 (sample: DOM10-53-474 standard)” value with cynomolgous IL-13 [17] amounted to 15.2 nM. For the same molecule, the “HEK cell assay EC50, Hu IL-13 (sample: DOM10-53-474 standard)” value with human IL-13 [18] came out at 0.62 nM.

B2: DOM10-275-78 (other)
chain: EVQLLESGGGLVQPGGSLRLSCVASGFTFDVAEMDWVRQAPGKGLEWVSTISPSRRGTYYADSVKGRFTISRDNSKNTLYLQMNSLRAEDTAVYYCAKAYTGRSLWGPGTLVTVSS
B2 showed an IC50 in the experiment with human IL-13 [21] of 1.2 nM. For the same molecule, the Kd with human IL-13 [2] was in the range of 0.072 to 0.1 nM. The molecule also yielded an IC50 with human IL-13 [22] of 1.2 nM. Also, the Kd with cynomolgous IL-13 [7] was in the range of 0.32 to 0.75 nM. In the experiment with human IL-13 [8], this molecule registered an EC50 of 1.3 nM. This molecule yielded an IC50 in the experiment with human IL-13 [23] of 1.1 nM. The “HEK assay cIL-13 EC50 (HEK293 STAT6 SEAP reporter)” value with cynomolgous IL-13 [13] was 1.4 nM. Besides, the “HEK assay hIL-13 EC50 (HEK293 STAT6 SEAP reporter, 6 ng/ml IL-13)” value in the experiment with human IL-13 [14] is 2.5 nM. In the experiment with human IL-13 [16], the EC50 came out at 3.33 nM. In the experiment with cynomolgous IL-13 [17], the “HEK cell assay EC50, Cyno IL-13 (sample: DOM10-275-78 aerosol 3 mins)” value amounted to 0.99 nM; the “HEK cell assay EC50, Cyno IL-13 (sample: DOM10-275-78 aerosol 15 mins)” value turned out to be 0.95 nM; the “HEK cell assay EC50, Cyno IL-13 (sample: DOM10-275-78 aerosol 29 mins)” value was determined as 0.74 nM; the “HEK cell assay EC50, Cyno IL-13 (sample: DOM10-275-78 cup 3 mins)” value is 1.77 nM. In addition, in the experiment with cynomolgous IL-13 [17], the “HEK cell assay EC50, Cyno IL-13 (sample: DOM10-275-78 cup 15 mins)” value came out at 1.52 nM; the “HEK cell assay EC50, Cyno IL-13 (sample: DOM10-275-78 cup 29 mins)” value came out at 0.74 nM; the “HEK cell assay EC50, Cyno IL-13 (sample: DOM10-275-78 start)” value was 0.93 nM. In addition, in the experiment with human IL-13 [18], the “HEK cell assay EC50, Hu IL-13 (sample: DOM10-275-78 aerosol 3 mins)” value worked out at 1.8 nM; the “HEK cell assay EC50, Hu IL-13 (sample: DOM10-275-78 aerosol 15 mins)” value amounted to 1.01 nM; the “HEK cell assay EC50, Hu IL-13 (sample: DOM10-275-78 aerosol 29 mins)” value came to 0.62 nM; the “HEK cell assay EC50, Hu IL-13 (sample: DOM10-275-78 cup 3 mins)” value turned out to be 1.45 nM. For the same molecule, in the experiment with human IL-13 [18], the “HEK cell assay EC50, Hu IL-13 (sample: DOM10-275-78 cup 15 mins)” value is 2.18 nM; the “HEK cell assay EC50, Hu IL-13 (sample: DOM10-275-78 cup 29 mins)” value was 0.48 nM; the “HEK cell assay EC50, Hu IL-13 (sample: DOM10-275-78 start)” value was determined as 0.58 nM. In the experiment with human IL-13 [24], this molecule displayed an IC50 of 1.1 nM. Also, the IC50 in the experiment with human IL-13 [25] is 1.1 nM. This molecule also came in with an IC50 with human IL-13 [26] of 1.1 nM. In the experiment with human IL-13 [27], this molecule returned an IC50 of 1 nM.
